Reference: PMC8113886, “The Rid family member RutC of Escherichia coli is a 3-aminoacrylate deaminase” (The Journal of Biological Chemistry, 2021)

How the values were obtained:
RidA = target: T1, RidA (Salmonella enterica, UniProt Q7CP78); assay: semicarbazone competition assay, absorbance at […] nm; format: biochemical; details: imine generated in situ by L-amino acid oxidase from 10 mM L-methionine; 10 uM RidA, 50 mM potassium pyrophosphate pH 8.7, 23 °C
T1 construct: full-length RidA; purification and tag not described here
T1 sequence (Q7CP78 1-128): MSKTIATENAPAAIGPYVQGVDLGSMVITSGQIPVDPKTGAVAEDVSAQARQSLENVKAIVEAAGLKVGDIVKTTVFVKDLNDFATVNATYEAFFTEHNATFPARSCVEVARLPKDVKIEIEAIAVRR

purified protein = substrate: NC=CC(=O)O; assay: purified protein; format: biochemical, Escherichia coli; details: 3-AA generated in situ by 5 uM RutB, varied concentration is ureidoacrylate, not 3-AA, spontaneous deamination not subtracted, 3 uM RutC, 40 mM Tris-HCl pH 8.2, 23 °C

Molecule: CSCCC(=N)C(=O)O [imino derivative of methionine]
- semicarbazone competition assay, absorbance at 248 nm (RidA): RidA showed activity primarily on the imino derivatives of methionine and leucine.

B1: RutC (Escherichia coli K-12) (protein)
chain: MPKSVIIPAGSSAPLAPFVPGTLADGVVYVSGTLAFDQHNNVLFADDPKAQTRHVLETIRKVIETAGGTMADVTFNSIFITDWKNYAAINEIYAEFFPGDKPARFCIQCGLVKPDALVEIATIAHIAK
- Km (purified protein): 9.1 ± 1.9 mM
- Vmax (purified protein): 31.9 ± 3.9 nmoles of NADPH consumed min^-1
- kcat (purified protein): 0.867 s⁻¹
